Experimental findings from patent publication US20080207523 are described below.

In this data set the test system is Tenascin-C (human). The experiment in a line: competition.

In the case of (TTA1-MAG2)2P5 aptamer dimer (22A), for the setting “two TTA1-MAG2 joined via bis-maleimide peptide linker P5 (bAla-Ser-Ser-Ser-Dpr-Met-Cys-Ser-Ser-Ser-Lys), competition binding assay against the lead compound”, the EC50 (in general, the midpoint of the concentration-response curve) turned out to be 3.6 nM.

For the substance “TTA1-MAG2 aptamer monomer (2A, lead compound)”, under “MAG2 conjugate, monomer comparator”, the IC50 (commonly the concentration at which inhibition is half-maximal) stood at 5.6 nM.
